This series in a line: soluble on expression in E. coli; label from the status in PepcDB or PDB records.
As to “MSLAKIVFCILDGLGDTTHTLPDGRKGTCLEMAKRPTLDAIAKAGTVGLNDSVSPGYPCGSDTAHLSLFGYPPFTYYNGRGAFEALGGGMDMEPGSIAFKSNFSTMYGECVKYRRCDRHFEVEGPILCKDLDGIKIPEFPEVKVSVVYATEHRCAVKILAPGLSDKIAGTDPIHDDLDLIKSYPLDDSPEAAYTAKVVNALSDTFRKALENHPINIERRKQGKEVANVILLRGPGMRLSCQPFGERHNIKAFLIAPTAIIAGLGISVGLPVIKVKGATGDMDSNFNAKAIAAAQELDGDKYDMGIIHMKGIDDAAHDGKIAVKTELIERADKAIHLLIEKLAELEEKNGDRFIVAVTADHSTSCTWKDHCFEPVPFIVAEVAKVAQELGIKHVDQSKKPELVPTDSVHEFTETAACKGSLGRFCGAQMMNLLFHFAGRKQEEGHHHHHH”, the “soluble on expression in E. coli” value is listed as “soluble”.
“MSLTTATTSQTALRSRKDVPLSDCWDTKSLYASREVWQDELKKVGAEGAPFWPHLSENNFDIKQPSSLRELLTTVFSIERTLDKLYVYAHLTYDEDIANQEAAADLKSITFLLTSFVEEISWIQPALIALPQQVVNMLLASPELQEYHFYLKKLFRLAPHTGTSREEKILASSFPALEVAYKTFSSLTDSEIPFGEAVDSEGKSHPLSHALASLYMQSTDRELRKNTYQKQCQRHHGYRLSLANLLNGKIQAHLFNAKARDYDSCLEAALFQNDISTSVVTTLIDTVKQHTHLITEYFQLKQKALGLSDFHFYDVYAPLVASEASRHYSYQEAVTLICDSLSLLGNDYVETLRKGLTSDGWVDKYENTNKRSGAYSSGCYDSKPYILLNYTGTLYDVSVVAHEGGHSMHSFLSHKHQSYHEAQYPIFLAEIASTLNETLLMEFLLKQAPSKEEKIAILSRSLDTVFATLFRQTLFAAFELEMHSAAEQGLPLTEEFFSQSYEKLQRLFYGDCITFDEHSCIEWARIPHFYYNFYVYQYATGIIASLCFSERILSGEEGAQEAYLTFLRSGGSDFPIEILKKSGLDMTSSAPMLKAFSYIERKLEELASLLEGHHHHHH”: the “soluble on expression in E. coli” value is on record as “soluble”.
As to “MGSDKIHHHHHHMNVLNDSVDDTVQKKVAFFLPTLNIGGIERVFITYANYLIDKKYNIYFILCKRRGELLSLLDSNIKLYHLGNVQLKFSFLKLRQSLKEIQPDVIVSGGDFPNLILIVSSLGLKKVPKIIISQHNYYNVETRRLGWWAYGTCFFMKKIYPKADKIIAVSDGIREFLIKKIHISADRIIKLPNPIDIKGIKEKSLELLDITLPDRYILFVGRLSYVKNLFFLLDAFEMGKLDNNSLVIVGDGEMRNALMKKAKKMHKADNIIFLGAMENPLPILKKAQLLVLPSFSEAYPTILLEALCLYIPVVSTPTKGAKEILHNVSGTYISTDCYNIEEFARLMERGVKERISHKVIDDKIGLNSIENIGLRIQREIIEDNRL”, the “soluble on expression in E. coli” value is “not soluble”.
For the sequence “MGSDKIHHHHHHMWTPMRDGPPKGMHGGKSERPISPRMKPSGLRIWTGSPRAANSERASDEALSCTHIQTCVARLRDTFPSGTVERGQHGGTTVNLIDGIKGNRFAVFGRAGMDMFADPIGTKSEDATTFRADLGGSSANICAGLVKLGAEAALVTSVSDDAVGRFCVNRLRDYGVETRYVRAVGGEARTSLAVYESRIDDFQNVIYRNGAADFQVTKADMDAVDYSAFSALITAGTVFAAEPSRSATFRAFEHARTAGLPVIFDIDYRPYSWPSPEVASEVLTRAGEASDLIVGNDEEFGFMAGHIDKGLEKARALAAQGRMVIYKMGEAGAITIAEGQEIRTGIYPVTAVKPNGAGDSFMAGLLASIAQGHALSDAVLRGSACASIVVSQPGCANAMPTTAELEAFLASHPGPTV”, the “soluble on expression in E. coli” value was “not soluble”.
Regarding “MELLPQGQRNNTQVTFEDQQKINEFSKLIMRKDAIAQELSLQREEKEYLDDVSLEIELIDEDEPVQYKVGDLFIFMKQSKVTAQLEKDAERLDNKIETLEDKQRDIDSRLDALKAILYAKFGDNINLER”, the “soluble on expression in E. coli” value is “not soluble”.
For “MDTDIRDFIIEDDLFDPFMDENEDDDRAEIDEEPETPLIGEPLDEWKKPVEDWRPAQVRIKDLFEEMPGQKRMMLKIIDYCREERTGEEMDVFTNDLKQYCYSVYSPVVFRELLEEAGAIEYIKPDEPEGSQDAAQSEERAQAGGELPEEAVSPHRGDVYGTLPVDDESTLVPIDGADIVHESYIEGDEEIQMDFLEITPCEPGTWKATEAGLEAVDSMDDLDGTKELLGKEPKYLDIYHQILDYCQDEYGRSSKEIDKLVNDSPLLEEPRRYSGYFVSRLEKQGALEWRNGWFVTEVGKKIIEEAAAHV” the value was “not soluble”; for “MSLGTSWQIGDVTIPNRVVVAPMAGVTNVAFRMICKAFGAGLVECEMISGQGIHYHNQRTLRMMAVNAQEHPMSIQIFGGTQETLVQAAQFVDQQTAADIIDINMGCPVNKVVNTDAGAKWLLDPQKVHDMVAAVVAAVKKPVTVKMRTGWDDHHIFAVDNALAAQRAGAAAVAMHGRTRKQMYQGQADWQILAEVAQHLTIPFMGNGDVRTPQDAQRMLNEVGADAVMIGRAVMGNPWLLQRINHYLATDELLAEPTPQEKTTIALEHLHKLCVAKGPVEGPRDFRNQVAYYLKGIPHTARTKVAITDATEEAVMHDLLVKFLERMTATIEGHHHHHH”, “not soluble”.
For the sequence “MGISDNDVQKQLRHMMAFIEQEANEKAEEIDAKAEEEFNIEKGRLVQQQRQKIMEFFEKKEKQVELQRKIQASNSLNAGRLRCLKAREDHIGAVLDEARSNLSRISGDAARYPAILKGLVMQGLLQLLEKEVVLRCREKDLRLVEQLLPECLDGLQKEWGSTTKVVLDKQNFLPSESAGGVELSARAGKIKVSSTLESRLELIANQIVPQVRTALFGPNPNRSFFD”, the “soluble on expression in E. coli” value is recorded as “not soluble”.
In the case of “VYAILISDIHVGSKEFCENAFIKFLEWLNGNVETKEEEEIVSRVKYLIIAGDVVDGVGVYPGQYADLTIPDIFDQYEALANLLSHVPKHITMFIAPGNHDAARQAIPQPEFYKEYAKPIYKLKNAVIISNPAVIRLHGRDFLIAHGRGIEDVVGSVPGLTHHKPGLPMVELLKMRHVAPMFGGKVPIAPDPEDLLVIEEVPDVVHMGHVHVYDAVVYRGVQLVNSATWQAQTEFQKMVNIVPTPAKVPVVDIDTAKVVKVLDFSGWC”, the “soluble on expression in E. coli” value was “not soluble”.
For “MSSEPTSSIESDNLRRSKRKKFKLDFVAAAHGNNQKKSRKDPHGQGDDDDDTFDDDLNHFEPLSVLTEQDVSMEMFEDDEEDTVSRRRTRRSTAHFQDYQEPDRWIENSGPHACHKCPSRYESKSSLANHTKMHLGEKRKFACELCDFSASTLKSLTHHNNIHQNFGVLSQQTSPVIPVASSADSTLNSSINSTGCQINAPPAPKLDEEAPIAVESVVVHHEDVAEFDTTPPPILEREDDGPPVLIREAPVRKSNRPMKPTQKAQKMTKQRERKSKTVESPKGSLPSSSASSVTPPPVRKDVEKPKIFVKTTKKNLKKTMKITKVRQRCPHCPFTTSTVTRLNRHSGGHKLKEGYICPSENCNFMCRKAGFLQKHYILHKGTLPWPPEYVKKGGAKMKRTFPESEEKKIEVTEKVQKMKKMHKRRANTVQVVAKAQLKSYIKVEVDDVIFKKCNIGECEFLTQTLTQLIVHKVKTHDTKTAFPQHRFLCLTCGHRAKSYAALRTHKLIEHTSTHKRFHRTYYLKECVGDKFFVKYNLSKVQEEVKEEPKEADGDESGDESFDSMCPASDVHPETLAAIEMKDVFFCCNMCPYKAPTMNRCQRHYDKHFKNDEFKCQYCSWSSRSKEVIVNHEKLHPTVVVANTNEAPVVKNEIEAKVEVLSKTVSSPVECTEESSLSKSIQLWCQREKLRHPELDEQFTRKMIDGVKGFQCTDCPYTSKYRGDMRSHKKRHDIEQLYRCVQCTYTTNRPVSLKDHLKQHAIVNMSIADIKSRRVVVNQGVKIGMRRGVGKDKIYCCDKCPYVTLALGCLWRHHRNHRDTAKINICSNCSYSSIDQRKMEEHTIIHLGLGLNEAVPFVKRVDQKGRPVSSLTDLNSEKMNERKSTKRKMLDKVEKMEVGEDEEDDEESVDKGTDDGDYKQRPEKKRKQSSEEPASDPELFGSSSQPTRQLSERATRNRINYSLLSKNGSGKPTPSTSSANLEKLAGSSGGASSESPEPDESVEVSHWKIRTFLRSEYGVKESLKCPDCPYKSSEPDVLEKHRYYHMTKTTPRPYACSDCTFNTYTPTALLQHLKLHSEGVYFDPMVKKHMKHRKGDSIPPGVKGYYCKNCSFKTSIHRNFIEHSAYHRQQLINRINITLKRQPPRIEYQRPKLKHQFVAKNAKYCKKCTFKCVSQSNFIEHLDRHGWNQLYKCYSCDYSDNTKSVVDFHQLNHHIVKDQTLHSICQSAKFRLENGVIQIPETEKSKPTPDEFVSKTRGLLKCPSCEYFCHVSSELAFHMSVHHLTEPNARETISYLHMGLVPPKATVTTV”, the “soluble on expression in E. coli” value was “not soluble”.
“MSLIDIHSHIVFDVDDGPKSREESKALLAESYRQGVRTIVSTSHRRKGMFETPEEKIAESFLQVREIAKEVADDLVIAYGAEIYYTPDVLDKLGKKRIPTLNDSRYALIEFSMNTPYRDIHSALSKILMLGITPVIAHIERYDALGNNEKRVRELIDMGCYTQVNSSHVLKPKLFGERYKFMKKRAQYFLEQTLVHVIASDMHNLDGRPPHMAEAYDFVTQKYGEAKAQELFIDNPRKIIMDQLIEGGSHHHHHH”: the “soluble on expression in E. coli” value is reported as “soluble”.
For “GMSSNLHGIAIGIERSQDDFYLAFKAVGKLTHEDYEQMTPLLESALAGIKTPEIVALIDITELDGLSLHAAWDDLKLGLKHGKEFKRVAIIGQGELQEWATRVANWFTPGEFKFFEDKRDALDWLC” the value was “soluble”; for “MNNQLTEITVVRRQSAPRLEFEAAAIYEYPEHLRPFLSEAPALPGVYIFHSESDTLPLYIGKSVNIRSRVLSHLRTPDEATMLRQARRISWICTAGEMGALLLEARLIKEQQPLFNKRLRRNRQLCSLQLSEQKIEVVSARSVDFSHEPNLFGLFANRRAALQSLQNLADEQKLCYGLLGLEPVSRGRACFRFALKRCAGACCGQETPQAHFLRLQASLERLRVVCWPWKGAIALKESRPQMTQFHIINNWLWLGAVPSLDEAATLVRTPAGFDQDGYKILCKPLMSGQYEIIELHTDCRQS”, “not soluble”.
Take “MLGSPVAGAQVRVWQLDLDGQRKGREPLREAVTDDRGRFRIEMGAAHGNLLVESAGGETRELWSEEPLGLDPDVPLEAIIPLYIPVQHREIVVSPFTSVAAALVERRPVEPGRFHEAMQGVHALLGGHLGGIDILDAPVTPIDEPATQLTPGVRHGLLLGALSMLAGRMAEETGASVRGLNTMMLTAALREDARDESGLLDGVGPEGAIALGFCVDPPSGADTPLCRLSAQTLRQDLAETLAFHLLGSAQDGTGLSFGDGVVLANEVAQGTETALFGNVQPGNVGDERAPVITPLASPYYEESEDAIAFEDDLTPVHVRSEAARIDLSEVFENDCDREIHKHVDVLGAGDANPLRWRFAVKDDLAGFDVEDLLVQLRVPGVLAARPLAVTSVELPEGETAPGRVFEVFARERDAEELARVEGRYNIEIAATDRLGNTSPVLRGCWRHVPRAAPLWAGSFNAASGPGSFDERRLESNNLAPVLRGDQAPVLARLEVQNNTDEDVFLTLRADDIVGRYSATWTRSRVLLSEEEGMSDCLETGECFSAPPPDVVDEIIGLQPIPDSLVTLRVFDLATGVTPKCPNCRPNEVQIAAGGHFEVQAVVSNLAFLVPPSVNRTQIQEIQVGPIGAQVQLTGVDRRGYVHCEDTVPGSSLCRVRLSYQLFHALARATLQVDSLTISAVSSPLSTLAPRSPQPPLEGDNFTFSLPVSTAVTWTTEDASIPVSQ”: the “soluble on expression in E. coli” value is listed as “not soluble”.
On to “MGSDKIHHHHHHMKIEGLFNKYYNSFTANDKYICECILNHKEDCIKLSIDEFADKYHISTSALSRFAQKLQLPGYSELRVIIRLNETEVEYKNQSKHQLMDCYNKVIDDIEKKDCSIMFERMKKANRIIVFGEGYSQERVAKEMKRIFLPTGKIIYDVYGYDMIQALNHFIKTDDMIFFISLNGDASTIIDFAKEMRMKGIYMVSITKMISNPLARLCDENLYIQSISISVDKQLDYDVTTPYFILIELLYIKYKMYLESEHIPRK”, for which the “soluble on expression in E. coli” value was “not soluble”.

Source of the values: the DeepSol protein solubility set.
